Experiments:
[1] = target: Bradykinin peptide-oligonucleotide conjugate (Brady.O1); assay: BCS binding assay on a sequencing chip (Cycle 1), NGS count of the nanobody barcode on foundation Brady.O1_BCS4_Fd12 (non-specific peptide control)
[2] = target: Spot-Tag peptide-oligonucleotide conjugate (Spot-Tag.O1); assay: BCS binding assay on a sequencing chip (Cycle 1), NGS count of the nanobody barcode on foundation Spot-Tag.O1_BCS4_Fd20
[3] = target: Spot-Tag peptide-oligonucleotide conjugate (Spot-Tag.O1); assay: BCS binding assay on a sequencing chip (Cycle 1), NGS count of the nanobody barcode on foundation Spot-Tag.O1_BCS4_Fd28
[4] = target: Spot-Tag peptide-oligonucleotide conjugate (Spot-Tag.O1); assay: BCS binding assay on a sequencing chip (Cycle 1), NGS count of the nanobody barcode on foundation Spot-Tag.O1_BCS4_Fd19
[5] = target: Spot-Tag peptide-oligonucleotide conjugate (Spot-Tag.O1); assay: BCS binding assay on a sequencing chip (Cycle 1), NGS count of the nanobody barcode on foundation Spot-Tag.O1_BCS4_Fd31
[6] = target: Bradykinin peptide-oligonucleotide conjugate (Brady.O1); assay: BCS binding assay on a sequencing chip (Cycle 1), NGS count of the nanobody barcode on foundation Brady.O1_BCS4_Fd14 (non-specific peptide control)
[7] = target: Bradykinin peptide-oligonucleotide conjugate (Brady.O1); assay: BCS binding assay on a sequencing chip (Cycle 1), NGS count of the nanobody barcode on foundation Brady.O1_BCS4_Fd13 (non-specific peptide control)
[8] = target: Spot-Tag peptide-oligonucleotide conjugate (Spot-Tag.O1); assay: BCS binding assay on a sequencing chip (Cycle 1), NGS count of the nanobody barcode on foundation Spot-Tag.O1_BCS4_Fd27
[9] = target: Spot-Tag peptide-oligonucleotide conjugate (Spot-Tag.O1); assay: BCS binding assay on a sequencing chip (Cycle 1), NGS count of the nanobody barcode on foundation Spot-Tag.O1_BCS4_Fd29

For Spot-tag nanobody-oligo conjugate (VHH), the sequencing counts of binder barcode ligated to target foundation [1] was 40 counts, the sequencing counts of binder barcode ligated to target foundation [2] was 9650 counts and the sequencing counts of binder barcode ligated to target foundation [3] was 4880 counts. It also gave a sequencing counts of binder barcode ligated to target foundation [4] of 6900 counts, a sequencing counts of binder barcode ligated to target foundation [5] of 6160 counts and a sequencing counts of binder barcode ligated to target foundation [6] of 587 counts. For the same substance, the sequencing counts of binder barcode ligated to target foundation [7] was 1620 counts, the sequencing counts of binder barcode ligated to target foundation [8] was 3380 counts and the sequencing counts of binder barcode ligated to target foundation [9] was 10600 counts.
